Patent US12263210B2, “Immunogenic compounds for cancer therapy” (priority 2016, dated 2025)
One block for each sequence: values may come before it.

Assays:
[1] = tested on: IFNγ-producing cells (splenocytes); assay: ELISPOT-IFNγ assay on splenocytes of vaccinated β/A2/DR3 mice; format: in vivo, mouse; conditions: for Percentage of ConA-induced response (ELISPOT-IFNγ): mice vaccinated with the labelled peptide (100 μg s.c. + HHD-DR3, IFA, d0/d14), mean, SEM
HLA-A*0201 = molecular target: T1, HLA-A*0201 (Homo sapiens, UniProt P04439, D140Y/D185E/D98H/E176V/E277Q/G131W/G231S/I119V/I121R/I166T/I218V/L300P/L318F/N151K/N90K/P208A/P217A/Q86G/Q94H/R138H/R169H/T345S); assay: Affinity of the peptide to T2 cell line (HLA-A*0201 expression, FACS); format: cell-based; conditions: for Concentration that induces 20% of expression of the HLA-A*0201 / Mean fluorescence intensity: T2 ATCC cells; for Concentration that induces 20% of expression of the HLA-A*0201: Example 1; for Binding to HLA-A*0201 (in words) / Affinity to HLA-A*0201 compared with the corresponding human peptide (in words): T2 cells; for Affinity to HLA-A*0201 compared with the corresponding human peptide (in words): relative affinity, lower value = higher affinity; for Relative affinity: conc. inducing 20% expression / same of reference peptide HIV pol 589-597; for HLA-A2 labelling at 0.1 μM / HLA-A2 labelling at 1 μM / HLA-A2 labelling at 10 μM / HLA-A2 labelling at 100 μM: percentage of labelling of HIV pol 589-597 at 100 μM; for HLA-A2 labelling at 0.1 μM: peptide 0.1 μM; for HLA-A2 labelling at 1 μM: peptide 1 μM; for HLA-A2 labelling at 10 μM: peptide 10 μM; for HLA-A2 labelling at 100 μM: peptide 100 μM
T1 construct: the human tumoral cell T2 which expresses the HLA-A*0201 molecule; endogenous in cells; host or cells: T2 cells (human, TAP1/2 negative; 'T2 ATCC Cells')
Protocol: Affinity measurement of the peptides is achieved with the human tumoral cell T2 which expresses the HLA-A*0201 molecule, but which is TAP1/2 negative and incapable of presenting endogenous peptides.
T2 cells (2.10^5 cells per well) are incubated with decreasing concentrations of peptides from 100 μM to 0.1 μM in a AIMV medium supplemented with 100 ng/μl of human β2m at 37° C. for 16 hours. Cells are then washed two times and marked with the anti-HLA-A2 antibody coupled to PE (clone BB7.2, BD Pharmagen).
The analysis is achieved by FACS (Guava Easy Cyte). […]

[2] = ex vivo re-stimulation with IL13RA2-B pAg 10 μM
[3] = ex vivo re-stimulation with IL13RA2-H pAg 10 μM

Sequence: GLPPDVQRV [MMP2-H, reference compound]
- Conc. inducing 20% of HLA-A2 expression (HLA-A*0201; Table 8): 1.76 µM

Sequence: ILLGVVFGI [ERBB2-3B4]
- Affinity to HLA-A*0201 compared with the corresponding human peptide (in words) (HLA-A*0201): higher affinity
- Conc. inducing 20% of HLA-A2 expression (HLA-A*0201; Table 7): 0.9 µM

Sequence: KLVEWLAML [MAGE C1B]
- Affinity to HLA-A*0201 compared with the corresponding human peptide (in words) (HLA-A*0201): higher affinity
- Conc. inducing 20% of HLA-A2 expression (HLA-A*0201; Table 8): 30.91 µM

Sequence: MLAVFLPLV [STEAP-B1]
- Affinity to HLA-A*0201 compared with the corresponding human peptide (in words) (HLA-A*0201): higher affinity
- Conc. inducing 20% of HLA-A2 expression (HLA-A*0201; Table 8): 5 µM

Sequence: SLPPDVQQV [MMP2-B]
- Affinity to HLA-A*0201 compared with the corresponding human peptide (in words) (HLA-A*0201): higher affinity
- Conc. inducing 20% of HLA-A2 expression (HLA-A*0201; Table 8): 0.88 µM

Sequence: TMNGKSSPV [ENAH-1B]
- Affinity to HLA-A*0201 compared with the corresponding human peptide (in words) (HLA-A*0201): higher affinity
- Conc. inducing 20% of HLA-A2 expression (HLA-A*0201; Table 9): 33.45 µM
- Relative affinity (HLA-A*0201; Table 9): 1.26
- HLA-A2 labelling at 0.1 μM (HLA-A*0201; Table 9): 12.71
- HLA-A2 labelling at 1 μM (HLA-A*0201; Table 9): 14.18
- HLA-A2 labelling at 10 μM (HLA-A*0201; Table 9): 2.93
- HLA-A2 labelling at 100 μM (HLA-A*0201; Table 9): 100.24

Sequence: VLLGVVFGV [ERBB2-3B2]
- Affinity to HLA-A*0201 compared with the corresponding human peptide (in words) (HLA-A*0201): higher affinity
- Conc. inducing 20% of HLA-A2 expression (HLA-A*0201; Table 7): 6.9 µM
- Relative affinity (HLA-A*0201; Table 7): 0.19
- HLA-A2 labelling at 0.1 μM (HLA-A*0201; Table 7): −14.62
- HLA-A2 labelling at 1 μM (HLA-A*0201; Table 7): 1.51
- HLA-A2 labelling at 10 μM (HLA-A*0201; Table 7): 56.97
- HLA-A2 labelling at 100 μM (HLA-A*0201; Table 7): 335.97

Sequence: VMLGVVFGI [ERBB2-3B3]
- Affinity to HLA-A*0201 compared with the corresponding human peptide (in words) (HLA-A*0201): higher affinity
- Conc. inducing 20% of HLA-A2 expression (HLA-A*0201; Table 7): 12.5 µM

Sequence: YLAVFLPIV [STEAP-B2]
- Affinity to HLA-A*0201 compared with the corresponding human peptide (in words) (HLA-A*0201): higher affinity
- Conc. inducing 20% of HLA-A2 expression (HLA-A*0201; Table 8): 8.22 µM

Continued, in another order:

- Concentration that induces 20% of expression of the HLA-A*0201 (HLA-A*0201): 4.4 µM
- Mean fluorescence intensity (HLA-A*0201; peptide at 0.1 μM): 9.9
- Mean fluorescence intensity (HLA-A*0201; peptide at 100 µM): 112.03
- Binding to HLA-A*0201 (in words) (HLA-A*0201): binds strongly
Sequence: FLPFGFILV [IL13RA2-B]
- T cell responses in the ELISPOT-IFNγ assay after vaccination (in words) ([1]; compared to IL13RA2-H-vaccinated animals (group 2)): improved T cell responses
- Percentage of ConA-induced response (ELISPOT-IFNγ) [1, 2]: 56.3%
- Percentage of ConA-induced response (ELISPOT-IFNγ) [1, 3]: 32.3%

- Affinity to HLA-A*0201 compared with the corresponding human peptide (in words) (HLA-A*0201): higher affinity
- Conc. inducing 20% of HLA-A2 expression (HLA-A*0201; Table 8): 18.24 µM
Sequence: ITSDVPFSV [PMEL-B]

- Conc. inducing 20% of HLA-A2 expression (HLA-A*0201; Table 8): 60.07 µM
Sequence: KVVEFLAML [MAGE C1H, reference compound]

- Conc. inducing 20% of HLA-A2 expression (HLA-A*0201; Table 8): 33.45 µM
Sequence: MIAVFLPIV [STEAP-H, reference compound]

- Affinity to HLA-A*0201 compared with the corresponding human peptide (in words) (HLA-A*0201): higher affinity
- Conc. inducing 20% of HLA-A2 expression (HLA-A*0201; Table 7): 9.5 µM
Sequence: RLLEETDLV [ERBB2-1B]

- Binding to HLA-A*0201 (in words) (HLA-A*0201): does not bind
- HLA-A2 labelling at 0.1 μM (HLA-A*0201; Table 9): 8.31
- HLA-A2 labelling at 1 μM (HLA-A*0201; Table 9): −2.93
- HLA-A2 labelling at 10 μM (HLA-A*0201; Table 9): 19.07
- HLA-A2 labelling at 100 μM (HLA-A*0201; Table 9): 18.58
Sequence: TMNGSKSPV [ENAH-1H, reference compound]

- Affinity to HLA-A*0201 compared with the corresponding human peptide (in words) (HLA-A*0201): higher affinity
- Conc. inducing 20% of HLA-A2 expression (HLA-A*0201; Table 7): 9 µM
Sequence: VMLGVVFGV [ERBB2-3B1]

- Conc. inducing 20% of HLA-A2 expression (HLA-A*0201; Table 7): 16.3 µM
- Relative affinity (HLA-A*0201; Table 7): 0.45
- HLA-A2 labelling at 0.1 μM (HLA-A*0201; Table 7): −12.61
- HLA-A2 labelling at 1 μM (HLA-A*0201; Table 7): −24.03
- HLA-A2 labelling at 10 μM (HLA-A*0201; Table 7): 11.93
- HLA-A2 labelling at 100 μM (HLA-A*0201; Table 7): 196.47
Sequence: VVLGVVFGI [ERBB2-3H, reference compound]

- Concentration that induces 20% of expression of the HLA-A*0201 (HLA-A*0201): 100 µM
- Binding to HLA-A*0201 (in words) (HLA-A*0201): does not bind
Sequence: WLPFGFILI [IL13RA2-H, reference compound]
- Percentage of ConA-induced response (ELISPOT-IFNγ) [1, 2]: 2.0%
- Percentage of ConA-induced response (ELISPOT-IFNγ) [1, 3]: 1.1%
